According to the supplement of paper PMC9112550, “Optimization of the antimicrobial peptide Bac7 by deep mutational scanning” (BMC Biology, 2022):

Tested on: Escherichia coli TOP10
Test: shrunken log2 fold change of peptide-encoding DNA abundance (4.5 h post-induction vs induction); higher = less antimicrobial activity (less host growth inhibition)
Details: time post-induction: 4.5 h; library: site-saturation at positions 5, 18, 19, 20
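Also: peptides expressed intracellularly from a pBAD plasmid library in pooled LB shake-flask culture, induced with 0.3% L-arabinose, DNA abundance read by NGS, three biological replicates, DESeq2 with apeglm shrinkage.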

| Sequence | shrunken log2 fold change |
| --- | --- |
| RRIRYRPPRLPRPRPRPPDWPRP | 0.299 |
| RRIRIRPPRLPRPRPRPPPWPRP | 0.508 |
| RRIRLRPPRLPRPRPRPFKDPRP | -0.023 |
| RRIRCRPPRLPRPRPRPTRDPRP | 0.104 |
| RRIRNRPPRLPRPRPRPKLLPRP | 0.127 |
| RRIRNRPPRLPRPRPRPEDWPRP | -0.0232 |
| RRIRRRPPRLPRPRPRPRDPPRP | 0.74 |
| RRIRARPPRLPRPRPRPKSCPRP | 0.129 |
| RRIRMRPPRLPRPRPRPWIDPRP | -0.146 |
| RRIRCRPPRLPRPRPRPHMKPRP | -1.1 |
| RRIRVRPPRLPRPRPRPGARPRP | 0.198 |
| RRIRCRPPRLPRPRPRPAPTPRP | 0.591 |
| RRIRARPPRLPRPRPRPMDPPRP | 0.0606 |
| RRIRGRPPRLPRPRPRPCTRPRP | 0.0901 |
| RRIRDRPPRLPRPRPRPFGDPRP | -0.0062 |
| RRIRQRPPRLPRPRPRPLEQPRP | 0.0165 |
| RRIRPRPPRLPRPRPRPFLAPRP | 0.0316 |
| RRIRHRPPRLPRPRPRPGKVPRP | -0.0067 |
| RRIRGRPPRLPRPRPRPLIQPRP | 0.827 |
| RRIRWRPPRLPRPRPRPDQIPRP | 0.134 |
| RRIRPRPPRLPRPRPRPGREPRP | 2.45 |
| RRIRARPPRLPRPRPRPQVYPRP | -0.174 |
| RRIRQRPPRLPRPRPRPAHQPRP | 0.0203 |
| RRIRFRPPRLPRPRPRPCSIPRP | 0.0647 |
| RRIRNRPPRLPRPRPRPLQPPRP | -0.187 |

| Sequence | shrunken log2 fold change |
| --- | --- |
| RRIRLRPPRLPRPRPRPEPQPRP | 0.728 |
| RRIRTRPPRLPRPRPRPDRNPRP | -0.09 |
| RRIRTRPPRLPRPRPRPVPDPRP | -0.0687 |
| RRIRKRPPRLPRPRPRPLQRPRP | 0.331 |
| RRIRGRPPRLPRPRPRPWLNPRP | -0.00435 |
| RRIRGRPPRLPRPRPRPCIAPRP | 0.797 |
| RRIRGRPPRLPRPRPRPEEVPRP | 1.53 |
| RRIRQRPPRLPRPRPRPYEQPRP | -0.609 |
| RRIRHRPPRLPRPRPRPPTIPRP | 0.215 |
| RRIRPRPPRLPRPRPRPGKHPRP | -0.141 |
| RRIRPRPPRLPRPRPRPENLPRP | -0.278 |
| RRIRLRPPRLPRPRPRPNRNPRP | -0.884 |
| RRIRERPPRLPRPRPRPAQFPRP | 0.383 |
| RRIRKRPPRLPRPRPRPIDEPRP | -0.148 |
| RRIRVRPPRLPRPRPRPGHYPRP | -0.125 |
| RRIRFRPPRLPRPRPRPWSLPRP | -0.529 |
| RRIRTRPPRLPRPRPRPHQQPRP | -0.0314 |
| RRIRTRPPRLPRPRPRPKWSPRP | -0.227 |
| RRIRPRPPRLPRPRPRPKDYPRP | -0.0674 |
| RRIRIRPPRLPRPRPRPHWNPRP | -0.758 |
| RRIRVRPPRLPRPRPRPNLTPRP | -0.186 |
| RRIRLRPPRLPRPRPRPKKDPRP | 0.0575 |
| RRIRSRPPRLPRPRPRPWPGPRP | -0.139 |
| RRIRNRPPRLPRPRPRPGTVPRP | -0.31 |
| RRIRKRPPRLPRPRPRPEGIPRP | -0.0332 |

| Sequence | shrunken log2 fold change |
| --- | --- |
| RRIRQRPPRLPRPRPRPGWTPRP | 0.286 |
| RRIRNRPPRLPRPRPRPSRWPRP | 0.417 |
| RRIRPRPPRLPRPRPRPLPNPRP | 0.0283 |
| RRIRVRPPRLPRPRPRPPCSPRP | -0.116 |
| RRIRERPPRLPRPRPRPNDEPRP | -0.0119 |
| RRIRIRPPRLPRPRPRPDANPRP | 0.219 |
| RRIRRRPPRLPRPRPRPLFDPRP | 0.136 |
| RRIRVRPPRLPRPRPRPSDDPRP | -0.417 |
| RRIRARPPRLPRPRPRPIRHPRP | -0.0279 |
| RRIRKRPPRLPRPRPRPDRNPRP | 0.158 |
| RRIRQRPPRLPRPRPRPHQMPRP | 0.0681 |
| RRIRSRPPRLPRPRPRPCPNPRP | -0.209 |
| RRIRTRPPRLPRPRPRPEENPRP | -0.0317 |
| RRIRPRPPRLPRPRPRPGHQPRP | 0.153 |
| RRIRQRPPRLPRPRPRPVRTPRP | 0.0701 |
| RRIRFRPPRLPRPRPRPNFYPRP | -0.212 |
| RRIRIRPPRLPRPRPRPWIRPRP | -0.156 |
| RRIRDRPPRLPRPRPRPHHTPRP | -1.13 |
| RRIRWRPPRLPRPRPRPTISPRP | 0.21 |
| RRIRIRPPRLPRPRPRPIRRPRP | 0.00942 |
| RRIRVRPPRLPRPRPRPHYTPRP | -0.169 |
| RRIRDRPPRLPRPRPRPAYSPRP | 0.0295 |
| RRIRCRPPRLPRPRPRPQFKPRP | -0.562 |
| RRIRGRPPRLPRPRPRPAFFPRP | 0.787 |
| RRIRSRPPRLPRPRPRPQLGPRP | 0.115 |

| Sequence | shrunken log2 fold change |
| --- | --- |
| RRIRCRPPRLPRPRPRPKEHPRP | -0.201 |
| RRIRYRPPRLPRPRPRPIKQPRP | -0.0386 |
| RRIRTRPPRLPRPRPRPTAFPRP | 0.13 |
| RRIRMRPPRLPRPRPRPWLSPRP | 0.0302 |
| RRIRRRPPRLPRPRPRPVGEPRP | 0.333 |
| RRIRERPPRLPRPRPRPMRAPRP | 0.763 |
| RRIRHRPPRLPRPRPRPKDGPRP | 0.326 |
| RRIRSRPPRLPRPRPRPTKTPRP | -0.0829 |
| RRIRLRPPRLPRPRPRPLCQPRP | -0.125 |
| RRIRTRPPRLPRPRPRPLAKPRP | 0.0419 |
| RRIRSRPPRLPRPRPRPTMVPRP | 0.0872 |
| RRIRSRPPRLPRPRPRPWTIPRP | -0.133 |
| RRIRRRPPRLPRPRPRPAWEPRP | 0.301 |
| RRIRSRPPRLPRPRPRPYTPPRP | -1.07 |
| RRIRNRPPRLPRPRPRPWIDPRP | -0.0152 |
| RRIRNRPPRLPRPRPRPEPRPRP | 0.635 |
| RRIRIRPPRLPRPRPRPQTHPRP | -0.412 |
| RRIRNRPPRLPRPRPRPCFFPRP | -0.489 |
| RRIRMRPPRLPRPRPRPCASPRP | 0.0954 |
| RRIRGRPPRLPRPRPRPYKSPRP | -0.135 |
| RRIRWRPPRLPRPRPRPIWIPRP | -0.186 |
| RRIRYRPPRLPRPRPRPAFVPRP | -0.178 |
| RRIRIRPPRLPRPRPRPQPCPRP | -0.0143 |
| RRIRARPPRLPRPRPRPQGTPRP | 0.451 |
| RRIRIRPPRLPRPRPRPLQPPRP | 0.327 |

| Sequence | shrunken log2 fold change |
| --- | --- |
| RRIRIRPPRLPRPRPRPTHHPRP | 0.155 |
| RRIRERPPRLPRPRPRPGNDPRP | -0.0081 |
| RRIRVRPPRLPRPRPRPCPWPRP | 0.0617 |
| RRIRVRPPRLPRPRPRPVRQPRP | -0.0557 |
| RRIRPRPPRLPRPRPRPQAQPRP | 0.143 |
| RRIRARPPRLPRPRPRPGFNPRP | 0.252 |
| RRIRIRPPRLPRPRPRPMFPPRP | -0.724 |
| RRIRTRPPRLPRPRPRPHNHPRP | -0.802 |
| RRIRCRPPRLPRPRPRPMNNPRP | -0.537 |
| RRIRHRPPRLPRPRPRPLADPRP | 0.26 |
| RRIRVRPPRLPRPRPRPTCCPRP | 0.095 |
| RRIRCRPPRLPRPRPRPYSGPRP | -0.566 |
| RRIRKRPPRLPRPRPRPPIAPRP | 0.464 |
| RRIRSRPPRLPRPRPRPYCAPRP | -0.698 |
| RRIRGRPPRLPRPRPRPSPNPRP | 0.244 |
| RRIRTRPPRLPRPRPRPDVWPRP | 0.33 |
| RRIRWRPPRLPRPRPRPPCNPRP | 0.0762 |
| RRIRSRPPRLPRPRPRPSVCPRP | 0.0526 |
| RRIRVRPPRLPRPRPRPFSEPRP | -0.237 |
| RRIRQRPPRLPRPRPRPKIMPRP | -0.668 |
| RRIRDRPPRLPRPRPRPDNRPRP | 0.147 |
| RRIRPRPPRLPRPRPRPNWFPRP | 0.283 |
| RRIRYRPPRLPRPRPRPGWFPRP | -0.112 |
| RRIRWRPPRLPRPRPRPKHLPRP | 0.0564 |
| RRIRFRPPRLPRPRPRPLIGPRP | -0.106 |

| Sequence | shrunken log2 fold change |
| --- | --- |
| RRIRARPPRLPRPRPRPSDRPRP | -0.0583 |
| RRIRLRPPRLPRPRPRPCPIPRP | -0.335 |
| RRIRSRPPRLPRPRPRPTIVPRP | 0.148 |
| RRIRQRPPRLPRPRPRPFRTPRP | -0.255 |
| RRIRERPPRLPRPRPRPSYNPRP | -0.924 |
| RRIRDRPPRLPRPRPRPALCPRP | 0.225 |
| RRIRARPPRLPRPRPRPPKFPRP | 0.121 |
| RRIRGRPPRLPRPRPRPVRYPRP | 0.428 |
| RRIRERPPRLPRPRPRPIMGPRP | -0.21 |
| RRIRLRPPRLPRPRPRPEAVPRP | -0.0408 |
| RRIRKRPPRLPRPRPRPHPSPRP | 0.163 |
| RRIRQRPPRLPRPRPRPAWMPRP | 0.0361 |
| RRIRWRPPRLPRPRPRPGMIPRP | -0.0827 |
| RRIRYRPPRLPRPRPRPEYTPRP | -0.542 |
| RRIRIRPPRLPRPRPRPICPPRP | 0.0188 |
| RRIRIRPPRLPRPRPRPSDHPRP | -0.91 |
| RRIRQRPPRLPRPRPRPLMYPRP | -0.608 |
| RRIRSRPPRLPRPRPRPAHHPRP | 0.048 |
| RRIRWRPPRLPRPRPRPPICPRP | -0.0702 |
| RRIRCRPPRLPRPRPRPVPPPRP | 0.474 |
| RRIRERPPRLPRPRPRPIAIPRP | -0.00127 |
| RRIRSRPPRLPRPRPRPLQSPRP | 0.49 |
| RRIRTRPPRLPRPRPRPNHEPRP | -0.143 |
| RRIRWRPPRLPRPRPRPPHSPRP | 0.218 |
| RRIRCRPPRLPRPRPRPPPNPRP | 1.27 |
